Results taken from patent publication US6958236B2, “Control of gene expression in plants” (priority 2000, dated 2005).

B1: LLV: EcR chimera: Locusta migratoria C+D and E domains, VP16; SEQ ID NO:81-82 (protein)
chain: MGREDLSPLSSLNGYSADSCDAKKKKGAAPRQQEELCLVCGDRASGYHYNALTCEGCKGFFRRSITKNAVYQCKYGNNCEIDMYMRRKCQECRLKKCLTVGMRPECVVPEYQCAVKRKEKKAQKDKDKPNSTTNGSPEVMMLKDIDAKVEPERPLSNGIKPVSPEQEELIHRLVYFQNEYESPSEEDLRRVTSQPTEGEDQSDVRFRHITEITILTVQLIVEFAKRLPGFDKLLREDQIALLKACSSEVMMFRMARRYDVNSDSILFANNQPYTKDSYNLAGMGETIEDMLRFCRQMYAMKVDNAEYALLTAIVIFSERPSLVEGWKVEKIQEIYLEALKAYVDNRRRPKSGTIFAKLLSVLTELRTLGNQNSEMCFSLKLKNKKLPPFLAEIWDVIPKLAPPTDVSLGDELHLDGEDVAMAHADALDDFDLDMLGDGDSPGPGFTPHDSAPYGALDMADFEFEQMFTDALGIDEYGG
B2: MLV: EcR chimera: Manduca sexta C+D domains, Locusta migratoria E domain, VP16; SEQ ID NO:85-86 (protein)
chain: MGREELSPASSINGCSTDGEPRRQKKGPAPRQQEELCLVCGDRASGYHYNALTCEGCKGFFRRSVTKNAVYICKFGHACEMDMYMRRKCQECRLKKCLAVGMRPECVVPESTCKNKRREKEAQREKDKLPVSTTTVDDHMPAIMQCDPPPPEAARIHEVVPRFLTEKLMEQNRLKNVTPLSANQKSLIARLVWYQNEYESPSEEDLRRVTSQPTEGEDQSDVRFRHITEITILTVQLIVEFAKRLPGFDKLLREDQIALLKACSSEVMMFRMARRYDVNSDSILFANNQPYTKDSYNLAGMGETIEDMLRFCRQMYAMKVDNAEYALLTAIVIFSERPSLVEGWKVEKIQEIYLEALKAYVDNRRRPKSGTIFAKLLSVLTELRTLGNQNSEMCFSLKLKNKKLPPFLAEIWDVIPKLAPPTDVSLGDELHLDGEDVAMAHADALDDFDLDMLGDGDSPGPGFTPHDSAPYGALDMADFEFEQMFTDALGIDEYGG
B3: MDV: EcR chimera: Manduca sexta C+D domains, Drosophila melanogaster E domain, VP16 activation domain; SEQ ID NO:63-64 (protein)
chain: MGREELSPASSINGCSTDGEPRRQKKGPAPRQQEELCLVCGDRASGYHYNALTCEGCKGFFRRSVTKNAVYICKFGHACEMDMYMRRKCQECRLKKCLAVGMRPECVVPESTCKNKRREKEAQREKDKLPVSTTTVDDHMPAIMQCDPPPPEAARIHEVVPRFLTEKLMEQNRLKNVTPLSANQKSLIARLVWYQDGYEQPSEEDLRRIMSQPDENESQTDVSFRHITEITILTVQLIVEFAKGLPAFTKIPQEDQITLLKACSSEVMMLRMARRYDHSSDSIFFANNRSYTRDSYKMAGMADNIEDLLHFCRQMFSMKVDNVEYALLTAIVIFSDRPGLEKAQLVEAIQSYYIDTLRIYILNRHCGDSMSLVFYAKLLSILTELRTLGNQNAEMCFSLKLKNRKLPKFLEEIWDVHAIPPKLAPPTDVSLGDELHLDGEDVAMAHADALDDFDLDMLGDGDSPGPGFTPHDSAPYGALDMADFEFEQMFTDALGIDEYGG

Test system: pCGS154 reporter
Assay: Transient transfection of S2 Drosophila cells with luciferase reporter and EcR receptor plasmids
Type: cell-based
Conditions: for Fold Activation With Chemistry Assay #1 / Fold Activation With Chemistry Assay #2: Example 7, 0.2 μM tebufenozide
Procedure: An in vivo cell based assay is designed to measure transcriptional activation by the receptors of a reporter plasmid. S2 Drosophila cells (ATCC CRL-1963) are transiently transfected with luciferase reporter and receptor expression plasmids using the calcium phosphate precipitation procedure (Di Nocera and David (1983) PNAS 80, 7095-7098). S2 cells are plated in 96 well format at a density of 2×10^5 in 166.6 μl of Schneider's Drosophila media supplemented with antibiotics and 10% heat inactivated fetal bovine serum (GIBO-BRL). The following day, 33.4 μl of a calcium phosphate precipitate containing 3-6 ng of pCGS154 reporter plasmid, 3-6 ng of EcR receptor plasmid along with salmon sperm DNA to a total of 400 ng DNA per well is added. Chemical ligands are added 16-24 hours after DNA addition to the cells. Cells are then harvested and extracted 24 hours after chemistry addition following the procedures for the luciferase assay by centrifuging and resuspending the cell pellets in 100 μl of cell culture lysis reagent (Promega). Luciferase activity is quantitated using chemiluminescence (Promega) using an analytical luminescence model 2001 luminometer.
S2 cells contain Drosophila EcR and USP. The endogenous USP can be used as the heterodimerization partner for EcR or exogenous USP expression plasmid can be added to the assay.
To compare the activities of Manduca and Drosophila EcR, S2 cells are transiently transfected using the above procedure with the reporter plasmid pCGS 154 and either full-length Drosophila EcR, DDV, full-length Manduca EcR, or MMV. Tebufenozide at 0.2 µM and 2 μM is used as the chemical ligand. Luciferase assays are performed as described above. All of the results are normalized as a ratio of activity to the light unit value for the pCGS154 reporter without chemistry.
The activities of the EcR-VP16 chimeras are compared by transiently transfecting S2 cells as described in Example 3. Tebufenozide is added to the cells at 0.2 μM concentration. Results are expressed as fold activation, a ratio of the activity of the constructs with chemistry added as compared to activity of the constructs without chemistry. All results are normalized to the luciferase activity of the pCGS154 reporter without receptor addition.
The activities of the EcR-VP16 chimeras are compared by transiently transfecting S2 cells as in Example 3. Tebufenozide is added to the cells at 0.2 μM concentration. Results are expressed as fold activation of constructs with chemistry as compared to without chemistry. All results are normalized to the luciferase activity of the pCGS154 reporter without receptor.
The activities of the EcR-VP16 chimeras are compared by transiently transfecting S2 cells as in Example 3. Tebufenozide is added to the cells at 0.2 μM concentration. Results are expressed as fold activation of constructs with chemistry as compared to without chemistry addition. All results are normalized to the luciferase activity of the pCGS154 reporter without receptor.

[1] = Example 6, 0.2 μM tebufenozide vs without chemistry, normalized to pCGS154 reporter without receptor

Molecule | Fold Activation With Chemistry (Example 6, third column (LLV, LMV), 0.2 μM tebufenozide) [fold] | Fold Activation With Chemistry Assay #1 [fold] | Fold Activation With Chemistry Assay #2 [fold] | Assay # 1 Fold Activation With Chemistry [1] [fold] | Assay # 2 Fold Activation With Chemistry [1] [fold]
B1 | 0.47 |  |  |  | 
B2 |  | 1.7 | 1.0 |  | 
B3 |  | 1.1 | 1.1 | 1.20 | 1.18
